Reference: patent US20170022281A1 (AbbVie / Abbott, published 2017)

Experiments:
[1] = biological target: T1, human PRLR on cells (human, UniProt P16471 25-622); assay: FACS T47D 10 ug/mL
T1 construct: Endogenous on T47D cells, transfected in Baf3-hPRLR cells; also called hPRLR; T47D cells
T1 sequence: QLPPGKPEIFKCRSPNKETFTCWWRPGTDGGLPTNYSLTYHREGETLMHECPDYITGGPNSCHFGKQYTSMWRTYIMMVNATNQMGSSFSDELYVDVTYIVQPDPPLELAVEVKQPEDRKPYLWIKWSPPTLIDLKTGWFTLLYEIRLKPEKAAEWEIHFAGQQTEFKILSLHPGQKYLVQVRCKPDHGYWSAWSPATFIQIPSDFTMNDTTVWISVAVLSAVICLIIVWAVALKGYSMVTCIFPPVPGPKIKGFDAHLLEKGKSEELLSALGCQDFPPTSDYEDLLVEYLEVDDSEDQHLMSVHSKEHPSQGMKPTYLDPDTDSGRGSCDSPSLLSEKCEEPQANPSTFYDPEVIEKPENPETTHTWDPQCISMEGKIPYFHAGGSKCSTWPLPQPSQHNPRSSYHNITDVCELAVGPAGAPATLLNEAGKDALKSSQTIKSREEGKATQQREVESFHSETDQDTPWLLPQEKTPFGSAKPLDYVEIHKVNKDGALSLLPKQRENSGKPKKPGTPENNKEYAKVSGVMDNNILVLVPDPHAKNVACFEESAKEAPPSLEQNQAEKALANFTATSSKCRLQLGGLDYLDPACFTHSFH

[2] = biological target: T2, rat PRLR on Nb2-11 rat lymphoma cells (rat, UniProt P05710 20-610); assay: cell-based or functional assay
T2 sequence (looked up): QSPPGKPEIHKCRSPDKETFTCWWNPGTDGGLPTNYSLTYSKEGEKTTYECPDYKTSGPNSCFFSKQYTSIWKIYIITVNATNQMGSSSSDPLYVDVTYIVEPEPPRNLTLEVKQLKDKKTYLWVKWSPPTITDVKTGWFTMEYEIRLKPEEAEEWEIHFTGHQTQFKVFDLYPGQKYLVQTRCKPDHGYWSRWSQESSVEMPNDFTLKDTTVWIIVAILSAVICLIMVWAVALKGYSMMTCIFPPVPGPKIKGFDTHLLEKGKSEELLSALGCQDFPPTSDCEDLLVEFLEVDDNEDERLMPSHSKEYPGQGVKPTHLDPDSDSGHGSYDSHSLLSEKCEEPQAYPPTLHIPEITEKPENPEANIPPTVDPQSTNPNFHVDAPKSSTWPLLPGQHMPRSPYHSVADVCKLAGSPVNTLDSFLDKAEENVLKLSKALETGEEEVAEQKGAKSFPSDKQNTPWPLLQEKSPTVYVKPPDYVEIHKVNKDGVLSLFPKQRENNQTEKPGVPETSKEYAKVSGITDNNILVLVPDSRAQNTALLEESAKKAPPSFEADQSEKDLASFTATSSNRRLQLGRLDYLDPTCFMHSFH

[3] = biological target: T3, mouse PRLR on Baf3-mPRLR cells (mouse, UniProt Q08501 20-608); assay: FACS Baf3-mPRLR 10 ug/mL
T3 construct: whole, on cells
T3 sequence (looked up): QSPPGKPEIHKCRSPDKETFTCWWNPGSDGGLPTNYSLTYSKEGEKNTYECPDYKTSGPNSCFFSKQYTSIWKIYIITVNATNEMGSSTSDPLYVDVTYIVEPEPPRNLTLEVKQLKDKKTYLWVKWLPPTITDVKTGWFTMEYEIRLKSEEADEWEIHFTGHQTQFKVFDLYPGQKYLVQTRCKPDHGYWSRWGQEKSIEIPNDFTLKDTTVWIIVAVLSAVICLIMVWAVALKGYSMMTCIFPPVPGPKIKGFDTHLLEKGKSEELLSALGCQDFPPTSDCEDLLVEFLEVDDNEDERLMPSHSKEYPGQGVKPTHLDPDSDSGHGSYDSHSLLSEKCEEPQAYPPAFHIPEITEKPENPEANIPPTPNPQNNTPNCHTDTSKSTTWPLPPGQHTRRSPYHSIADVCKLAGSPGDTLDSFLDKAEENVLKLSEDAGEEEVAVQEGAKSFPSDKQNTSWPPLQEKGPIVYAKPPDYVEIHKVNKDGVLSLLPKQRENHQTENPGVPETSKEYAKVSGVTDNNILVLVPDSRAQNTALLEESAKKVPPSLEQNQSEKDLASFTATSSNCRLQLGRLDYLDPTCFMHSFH
Method: Nb2-11 and Baf3-xPRLR cells were resuspended in FACS buffer (PBS+1% FBS) at 2 millions cells/mL. Cells were added to round bottom 96-well plate (100 uL/well) and treated with testing PRLR antibodies for 1 hr at 4 C. Cells were then washed with FACS buffer twice and incubated with 2nd antibody conjugated to ALEXA488 (Invitrogen) for 1 hr at 4 C. After two washes in FACS buffer, cells were resuspended in 1% formaldehyde in PBS. Cells were analyzed using LSRII flowcytometer.

[4] = biological target: T4, mouse PRLR ECD-Fc fusion protein (mouse, UniProt Q08501 20-229); assay: ELISA on ECD
T4 construct: extracellular domain; not shown: Fc region (captured by goat anti-human Fc)
T4 sequence (looked up): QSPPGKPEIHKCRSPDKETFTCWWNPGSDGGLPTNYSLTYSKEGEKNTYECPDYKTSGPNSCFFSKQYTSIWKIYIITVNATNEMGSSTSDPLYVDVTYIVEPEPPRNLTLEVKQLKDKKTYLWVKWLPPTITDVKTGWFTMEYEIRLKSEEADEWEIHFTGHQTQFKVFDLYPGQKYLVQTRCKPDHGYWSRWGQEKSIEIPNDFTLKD
Summary of the method: (§1)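 PRLR was captured on blocked plates for 1 h, then incubated 1 h with serial antibody dilutions in PBS pH 7.4/0.05% Tween 20 containing 10% Superblock. HRP secondary and TMB gave signal read at 450 nm, and EC50 came from curve fitting.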

[5] = biological target: T5, rat PRLR ECD-Fc fusion protein (rat, UniProt P05710 20-229); assay: ELISA on ECD
T5 construct: extracellular domain; not shown: Fc region (captured by goat anti-human Fc)
T5 sequence (looked up): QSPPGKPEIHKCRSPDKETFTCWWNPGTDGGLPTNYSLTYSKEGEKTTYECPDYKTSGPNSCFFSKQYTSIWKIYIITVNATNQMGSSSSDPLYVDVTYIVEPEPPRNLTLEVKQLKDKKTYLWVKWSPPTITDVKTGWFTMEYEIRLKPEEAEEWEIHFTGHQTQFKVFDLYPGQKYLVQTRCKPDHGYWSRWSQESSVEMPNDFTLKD
Summary of the method: as §1

B1: Ab11 (antibody, V domains shown)
VH: EVKLVESGGGLVQPGGSLKLSCAASGFTFSDYYMFWVRQTPEKSLEWVAYISNGGGSTYYPDTVKGRFTISRDNAKNTLYLQMSRLKSEDTAMYYCSRQLFYYGSRGAMGYWGQGTSVTVSS
VL: DVLMTQTPLSLPVSLGDQASISCRSSQSIVHSNGNTYLEWYLQKPGQSPKLLIYKVSNRFSGVPDRFSGSGSGTDFTLKISRVEAEDLGVYYCFQGSHVPFTFGSGTKLEIK
notes: murine monoclonal, isotype G1; also called murine Ab11
[1]
  FACS GeoMean-neg: 2220
[2]
  Nb2-11 proliferation IC50: > 30 µg/mL
[3]
  FACS GeoMean-neg: 25
[4]
  EC50: 0.086 nM
[5]
  EC50: 0.087 nM
